From patent US12187772 (Regeneron, dated 2025)

T1: IL10 receptor (IL10 receptor subunit alpha IL10Ra and beta subunit IL10Rb) on Ramos/STAT3-Luc and … (UniProt Q13651 22-578; Q08334 20-325, limits assumed)
T1 sequence (looked up) 1: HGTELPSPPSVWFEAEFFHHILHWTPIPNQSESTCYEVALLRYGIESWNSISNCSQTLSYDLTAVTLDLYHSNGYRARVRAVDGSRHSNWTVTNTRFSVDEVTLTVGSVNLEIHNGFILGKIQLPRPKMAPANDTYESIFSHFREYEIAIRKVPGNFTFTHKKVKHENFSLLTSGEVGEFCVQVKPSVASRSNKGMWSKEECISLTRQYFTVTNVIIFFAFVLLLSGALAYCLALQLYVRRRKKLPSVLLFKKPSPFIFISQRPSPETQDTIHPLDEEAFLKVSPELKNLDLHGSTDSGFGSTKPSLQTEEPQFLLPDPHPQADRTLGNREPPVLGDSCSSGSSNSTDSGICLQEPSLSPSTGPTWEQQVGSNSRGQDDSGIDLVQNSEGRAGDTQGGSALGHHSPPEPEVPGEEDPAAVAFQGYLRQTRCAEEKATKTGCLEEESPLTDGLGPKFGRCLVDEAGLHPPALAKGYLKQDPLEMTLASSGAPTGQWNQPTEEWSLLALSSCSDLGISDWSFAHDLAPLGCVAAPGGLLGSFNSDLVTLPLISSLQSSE
T1 sequence (looked up) 2: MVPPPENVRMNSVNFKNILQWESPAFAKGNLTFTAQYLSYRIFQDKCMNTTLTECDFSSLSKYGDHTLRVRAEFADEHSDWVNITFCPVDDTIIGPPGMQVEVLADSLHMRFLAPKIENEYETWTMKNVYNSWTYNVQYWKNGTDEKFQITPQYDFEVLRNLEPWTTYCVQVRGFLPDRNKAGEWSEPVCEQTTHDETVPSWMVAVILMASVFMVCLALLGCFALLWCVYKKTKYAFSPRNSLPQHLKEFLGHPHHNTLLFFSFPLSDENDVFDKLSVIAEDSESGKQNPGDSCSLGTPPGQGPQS


molecular target: T1, IL10 receptor (IL10 receptor subunit …); assay: cell-based or functional assay

EC50 of luciferase activity, Ramos/Stat3-Luc reporter cells [nM] | EC50 of luciferase activity, TF-1/Stat3-Luc reporter cells [nM] | Fold Induction of luciferase activity, Ramos/Stat3-Luc reporter cells [fold] | Fold Induction of luciferase activity, TF-1/Stat3-Luc reporter cells [fold] | Binder
0.127 | 0.361 | 3.02 | 2.66 | IL10M6 (hIL10-2XG4S-Fc; Fc is IgG4s) (Fc fusion) SPGQGTQSENSCTHFPGNLPNMLRDLRDAFSRVKTFFQMKDQLDNLLLKESLLEDFKGYLGCQALSEMIQFYLEEVMPQAENQDPDIKAHVNSLGENLKTLRLRLRRCHRFLPCENKSKAVEQVKNAFNKLQEKGIYKAMSEFDIFINYIEAYMTMKIRNGGGGSGGGGSESKYGPPCPPCPAPPVAGPSVFLFPPKPKDTLMISRTPEVTCVVVDVSQEDPEVQFNWYVDGVEVHNAKTKPREEQFNSTYRVVSVLTVLHQDWLNGKEYKCKVSNKGLPSSIEKTISKAKGQPREPQVYTLPPSQEEMTKNQVSLTCLVKGFYPSDIAVEWESNGQPENNYKTTPPVLDSDGSFFLYSRLTVDKSRWQEGNVFSCSVMHEALHNHYTQKSLSLSLGK
0.127 | 0.146 | 3.81 | 3.4 | IL10M5 (Fc-1XG4S-hIL10; Fc is IgG4s) (Fc fusion) ESKYGPPCPPCPAPPVAGPSVFLFPPKPKDTLMISRTPEVTCVVVDVSQEDPEVQFNWYVDGVEVHNAKTKPREEQFNSTYRVVSVLTVLHQDWLNGKEYKCKVSNKGLPSSIEKTISKAKGQPREPQVYTLPPSQEEMTKNQVSLTCLVKGFYPSDIAVEWESNGQPENNYKTTPPVLDSDGSFFLYSRLTVDKSRWQEGNVFSCSVMHEALHNHYTQKSLSLSLGKGGGGSSPGQGTQSENSCTHFPGNLPNMLRDLRDAFSRVKTFFQMKDQLDNLLLKESLLEDFKGYLGCQALSEMIQFYLEEVMPQAENQDPDIKAHVNSLGENLKTLRLRLRRCHRFLPCENKSKAVEQVKNAFNKLQEKGIYKAMSEFDIFINYIEAYMTMKIRN
0.115 | 0.138 | 4.06 | 3.78 | IL10M4 (Fc-2XG4S-hIL10; Fc is IgG4s) (Fc fusion) ESKYGPPCPPCPAPPVAGPSVFLFPPKPKDTLMISRTPEVTCVVVDVSQEDPEVQFNWYVDGVEVHNAKTKPREEQFNSTYRVVSVLTVLHQDWLNGKEYKCKVSNKGLPSSIEKTISKAKGQPREPQVYTLPPSQEEMTKNQVSLTCLVKGFYPSDIAVEWESNGQPENNYKTTPPVLDSDGSFFLYSRLTVDKSRWQEGNVFSCSVMHEALHNHYTQKSLSLSLGKGGGGSGGGGSSPGQGTQSENSCTHFPGNLPNMLRDLRDAFSRVKTFFQMKDQLDNLLLKESLLEDFKGYLGCQALSEMIQFYLEEVMPQAENQDPDIKAHVNSLGENLKTLRLRLRRCHRFLPCENKSKAVEQVKNAFNKLQEKGIYKAMSEFDIFINYIEAYMTMKIRN
0.172 | 0.319 | 2.88 | 2.36 | IL10M7 (hIL10-1XG4S-Fc; Fc is IgG4s) (Fc fusion) SPGQGTQSENSCTHFPGNLPNMLRDLRDAFSRVKTFFQMKDQLDNLLLKESLLEDFKGYLGCQALSEMIQFYLEEVMPQAENQDPDIKAHVNSLGENLKTLRLRLRRCHRFLPCENKSKAVEQVKNAFNKLQEKGIYKAMSEFDIFINYIEAYMTMKIRNGGGGSESKYGPPCPPCPAPPVAGPSVFLFPPKPKDTLMISRTPEVTCVVVDVSQEDPEVQFNWYVDGVEVHNAKTKPREEQFNSTYRVVSVLTVLHQDWLNGKEYKCKVSNKGLPSSIEKTISKAKGQPREPQVYTLPPSQEEMTKNQVSLTCLVKGFYPSDIAVEWESNGQPENNYKTTPPVLDSDGSFFLYSRLTVDKSRWQEGNVFSCSVMHEALHNHYTQKSLSLSLGK
